The target of experiment [1] is T1, human PSMA (prostate specific membrane antigen), full length (human, UniProt Q04609 1-750).
T1 construct: On LNCaP or C4-2B cells (endogenous) or transduced HEK293F cells; also called FOLH1_HUMAN; hPSMA
Briefly: flow cytometry cell binding assay, bispecific antibody titrated on LNCaP cells (human PSMA). The procedure:
PSMA×CD3 bispecific antibodies were tested for binding to PSMA positive cell lines LNCAP, human PSMA-HEK, Chimpanzee-PSMA-HEK and Cynomolgous monkey PSMA-HEK. To assess the binding capabilities of the PSMA bispecific antibodies, the cell-binding assay was utilized (described previously). Briefly, PSMA expressing tumor cells are bound by bispecific antibodies at known concentrations and the bound antibody is detected by an anti-human kappa light chain PE conjugated detection reagent (Invitrogen). The Mean Fluorescents Intensity (MFI) is the measure of bound bispecific antibody. The MFI is converted to a relative EC₅₀. EC₅₀ is a commonly used dose-response curve, where the half maximal effective concentration or the EC₅₀ point is defined as the inflection point of the curve. EC₅₀ s were determined by measuring cell bound bispecific and known concentrations. […] The dose response curves were then diluted down to that of background or no bispecific binding. The inflection point of this curve reflects the EC₅₀ point. The calculated EC₅₀ is determined by taking the ug/ml amount of bispecific antibody at the EC₅₀ point and converting it to a molarity value based on the MW of the bispecific antibody. Bispecific antibodies were normalized for protein concentration and then incubated with the same number of cells expressing either human or cyno PSMA. The MFI at each concentration was collected by flow cytometry and plotted as a function of concentration. Data was transformed via log 10 and then plotted. Nonlinear regression of binding curves was done to determine EC₅₀ s. These relative values were used for ranking PSMA binding to target cells.
PSMA×CD3 bispecific antibodies were tested for binding to PSMA positive cell line, LNCAP, to PSMA negative cell line, PC3. To assess the binding capabilities of the PSMA bispecific antibodies, the cell-binding assay was utilized (described previously). Bispecific antibodies were normalized for protein concentration and then incubated with the same number of cells expressing either human or cyno PSMA. The MFI at each concentration was collected by flow cytometry and plotted as a function of concentration.

In experiment [2] the target is T2, cynomolgus CD3ε on primary cynomolgus CD4+ T cells (cynomolgus monkey, UniProt Q95LI5 22-198).
T2 construct: whole, on cells
The experiment is described as follows: flow cytometry on primary cynomolgus CD4+ T cells (CD3e), anti-human IgG (H+L) Alexa Fluor 647. The procedure: (§1) The resulting panel of anti-CD3 antibodies was tested for binding against cell-surface CD3ε on primary human T cells. To do this, binding of antibodies from expression supernatants was visualized using a polyclonal anti-human secondary antibody and analyzed by flow cytometry. Briefly, binding of anti-CD3 antibodies to cell-surface CD3E was assessed by flow cytometry using primary Human T lymphocytes purified by negative selection (Biological Specialty, Colmar, USA). Expression supernatants or purified antibodies were normalized to 10 μg/ml in media or FACS buffer (BD BioSciences), respectively. 2×10⁵ cells were aliquoted into wells of a 96 well round-bottomed plate (CoStar) for labeling. Antibodies in expression supernatant were added to cells and incubated for 45 min at 4° C. Following centrifugation at 1300 rpm for 3 min and removal of supernatant, 50 μL of anti-human IgG (H+L) Alexa Fluor 647 secondary antibody (Life technologies Inc.) was incubated with the cells at a final concentration of 10 μg/mL for 30 min at 4° C. away from direct light. Following washing and resuspension in 30 μL FACs buffer (BD BioSciences). Sample collection was performed on an Intellicyt HTFC system using ForeCyt software. Viable single cells were gated prior to analysis of binding using the green or red fixable live/dead dyes (Life Technologies Inc.) and forward/side scatter area and height parameters, respectively. Graphs were generated in GraphPad Prism version 5 using mean fluorescence intensity values.
Binding analysis of the anti-CD3 hits to primary cynomolgus CD4⁺ T cells was then tested in order to assess the retention of cross-reactivity. Purified CD4⁺ T cells from the peripheral blood of cynomolgus monkeys (Zen Bio, Triangle Research Park, USA were used). Assay protocols were similar to those described above.

Experiment [3] addresses T3, human CD3ε on primary human T cells (human, UniProt P07766 23-207).
T3 construct: whole, on cells; Part of the TCR-CD3 complex on the cells; also called cell-surface CD3ε; CD3E
The experiment is described as follows: flow cytometry on primary human T cells (cell-surface CD3e), anti-human IgG (H+L) Alexa Fluor 647; one intermediate concentration of the titration is shown. The procedure: as §1

T2 sequence (Q95LI5 22-198): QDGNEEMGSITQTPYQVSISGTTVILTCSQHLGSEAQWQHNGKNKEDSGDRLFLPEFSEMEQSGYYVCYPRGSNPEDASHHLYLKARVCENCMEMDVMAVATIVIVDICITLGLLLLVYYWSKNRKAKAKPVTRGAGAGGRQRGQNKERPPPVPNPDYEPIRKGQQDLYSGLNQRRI
T1 sequence (Q04609 whole entry): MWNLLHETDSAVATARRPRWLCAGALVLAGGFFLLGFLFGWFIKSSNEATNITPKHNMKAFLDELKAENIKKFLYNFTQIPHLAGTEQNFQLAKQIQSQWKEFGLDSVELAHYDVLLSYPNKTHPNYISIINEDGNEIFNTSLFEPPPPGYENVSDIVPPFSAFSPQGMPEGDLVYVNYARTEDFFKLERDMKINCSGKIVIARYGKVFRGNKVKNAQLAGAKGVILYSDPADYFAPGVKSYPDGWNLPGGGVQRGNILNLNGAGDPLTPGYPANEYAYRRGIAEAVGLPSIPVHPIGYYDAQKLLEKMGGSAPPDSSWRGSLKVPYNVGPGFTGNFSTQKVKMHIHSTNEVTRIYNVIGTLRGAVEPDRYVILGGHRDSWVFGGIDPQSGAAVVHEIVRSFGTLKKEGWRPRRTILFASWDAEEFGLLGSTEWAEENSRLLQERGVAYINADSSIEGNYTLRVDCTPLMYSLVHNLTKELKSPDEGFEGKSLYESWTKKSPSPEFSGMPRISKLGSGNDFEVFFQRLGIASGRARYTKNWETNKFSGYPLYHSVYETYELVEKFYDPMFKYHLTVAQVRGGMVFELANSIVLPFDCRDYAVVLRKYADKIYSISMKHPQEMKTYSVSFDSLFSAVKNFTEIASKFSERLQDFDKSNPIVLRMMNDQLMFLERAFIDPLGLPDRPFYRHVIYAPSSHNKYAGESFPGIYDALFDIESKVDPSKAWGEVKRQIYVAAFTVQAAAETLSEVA
T3 sequence (P07766 23-207): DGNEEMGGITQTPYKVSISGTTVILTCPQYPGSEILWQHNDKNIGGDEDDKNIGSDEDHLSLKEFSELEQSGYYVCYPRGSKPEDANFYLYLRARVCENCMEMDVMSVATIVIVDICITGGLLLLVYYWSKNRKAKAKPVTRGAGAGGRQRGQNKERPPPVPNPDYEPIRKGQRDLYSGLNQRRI

B1: PS3B72 (bispecific antibody, human IgG4 S228P, kappa, lambda, F234A L235A)
heavy 1: not shown
light 1: not shown
heavy 2: EVQLVESGGGLVQPGGSLRLSCAASGFTFNTYAMNWVRQAPGKGLEWVARIRSKYNNYATYYAASVKGRFTISRDDSKNSLYLQMNSLKTEDTAVYYCARHGNFGNSYVSWFAYWGQGTLVTVSSASTKGPSVFPLAPCSRSTSESTAALGCLVKDYFPEPVTVSWNSGALTSGVHTFPAVLQSSGLYSLSSVVTVPSSSLGTKTYTCNVDHKPSNTKVDKRVESKYGPPCPPCPAPEAAGGPSVFLFPPKPKDTLMISRTPEVTCVVVDVSQEDPEVQFNWYVDGVEVHNAKTKPREEQFNSTYRVVSVLTVLHQDWLNGKEYKCKVSNKGLPSSIEKTISKAKGQPREPQVYTLPPSQEEMTKNQVSLTCLVKGFYPSDIAVEWESNGQPENNYKTTPPVLDSDGSFLLYSKLTVDKSRWQEGNVFSCSVMHEALHNHYTQKSLSLSLGK
light 2: QTVVTQEPSLTVSPGGTVTLTCRSSTGAVTTSNYANWVQQKPGQAPRGLIGGTNKRAPGTPARFSGSLLGGKAALTLSGVQPEDEAEYYCALWYSNLWVFGGGTKLTVLGQPKAAPSVTLFPPSSEELQANKATLVCLISDFYPGAVTVAWKADSSPVKAGVETTTPSKQSNNKYAASSYLSLTPEQWKSHRSYSCQVTHEGSTVEKTVAPTECS
notes: IgG4 PAA; PSMA arm first, then CD3 arm (F405L, R409K); also called PSMB360 x CD3B219
Turning to B1, in experiment [1], the binding result is recorded as “binds”.

B2: PS3B74 (bispecific antibody, human IgG4 S228P, kappa, lambda, F234A L235A)
heavy 1: not shown
light 1: not shown
heavy 2: EVQLVESGGGLVQPGGSLRLSCAASGFTFNTYAMNWVRQAPGKGLEWVARIRSKYNNYATYYAASVKGRFTISRDDSKNSLYLQMNSLKTEDTAVYYCARHGNFGNSYVSWFAYWGQGTLVTVSSASTKGPSVFPLAPCSRSTSESTAALGCLVKDYFPEPVTVSWNSGALTSGVHTFPAVLQSSGLYSLSSVVTVPSSSLGTKTYTCNVDHKPSNTKVDKRVESKYGPPCPPCPAPEAAGGPSVFLFPPKPKDTLMISRTPEVTCVVVDVSQEDPEVQFNWYVDGVEVHNAKTKPREEQFNSTYRVVSVLTVLHQDWLNGKEYKCKVSNKGLPSSIEKTISKAKGQPREPQVYTLPPSQEEMTKNQVSLTCLVKGFYPSDIAVEWESNGQPENNYKTTPPVLDSDGSFLLYSKLTVDKSRWQEGNVFSCSVMHEALHNHYTQKSLSLSLGK
light 2: QTVVTQEPSLTVSPGGTVTLTCRSSTGAVTTSNYANWVQQKPGQAPRGLIGGTNKRAPGTPARFSGSLLGGKAALTLSGVQPEDEAEYYCALWYSNLWVFGGGTKLTVLGQPKAAPSVTLFPPSSEELQANKATLVCLISDFYPGAVTVAWKADSSPVKAGVETTTPSKQSNNKYAASSYLSLTPEQWKSHRSYSCQVTHEGSTVEKTVAPTECS
notes: IgG4 PAA; PSMA arm first, then CD3 arm (F405L, R409K); also called PSMB362 x CD3B219
As to B2, the binding result in experiment [1] is “binds”.

B3: PS3B75 (bispecific antibody, human IgG4 S228P, kappa, lambda, F234A L235A)
heavy 1: not shown
light 1: not shown
heavy 2: EVQLVESGGGLVQPGGSLRLSCAASGFTFNTYAMNWVRQAPGKGLEWVARIRSKYNNYATYYAASVKGRFTISRDDSKNSLYLQMNSLKTEDTAVYYCARHGNFGNSYVSWFAYWGQGTLVTVSSASTKGPSVFPLAPCSRSTSESTAALGCLVKDYFPEPVTVSWNSGALTSGVHTFPAVLQSSGLYSLSSVVTVPSSSLGTKTYTCNVDHKPSNTKVDKRVESKYGPPCPPCPAPEAAGGPSVFLFPPKPKDTLMISRTPEVTCVVVDVSQEDPEVQFNWYVDGVEVHNAKTKPREEQFNSTYRVVSVLTVLHQDWLNGKEYKCKVSNKGLPSSIEKTISKAKGQPREPQVYTLPPSQEEMTKNQVSLTCLVKGFYPSDIAVEWESNGQPENNYKTTPPVLDSDGSFLLYSKLTVDKSRWQEGNVFSCSVMHEALHNHYTQKSLSLSLGK
light 2: QTVVTQEPSLTVSPGGTVTLTCRSSTGAVTTSNYANWVQQKPGQAPRGLIGGTNKRAPGTPARFSGSLLGGKAALTLSGVQPEDEAEYYCALWYSNLWVFGGGTKLTVLGQPKAAPSVTLFPPSSEELQANKATLVCLISDFYPGAVTVAWKADSSPVKAGVETTTPSKQSNNKYAASSYLSLTPEQWKSHRSYSCQVTHEGSTVEKTVAPTECS
notes: IgG4 PAA; PSMA arm first, then CD3 arm (F405L, R409K); also called PSMB363 x CD3B219
With B3, the binding result in experiment [1] is listed as “binds”.

B4: PS3B73 (bispecific antibody, human IgG4 S228P, kappa, lambda, F234A L235A)
heavy 1: not shown
light 1: not shown
heavy 2: EVQLVESGGGLVQPGGSLRLSCAASGFTFNTYAMNWVRQAPGKGLEWVARIRSKYNNYATYYAASVKGRFTISRDDSKNSLYLQMNSLKTEDTAVYYCARHGNFGNSYVSWFAYWGQGTLVTVSSASTKGPSVFPLAPCSRSTSESTAALGCLVKDYFPEPVTVSWNSGALTSGVHTFPAVLQSSGLYSLSSVVTVPSSSLGTKTYTCNVDHKPSNTKVDKRVESKYGPPCPPCPAPEAAGGPSVFLFPPKPKDTLMISRTPEVTCVVVDVSQEDPEVQFNWYVDGVEVHNAKTKPREEQFNSTYRVVSVLTVLHQDWLNGKEYKCKVSNKGLPSSIEKTISKAKGQPREPQVYTLPPSQEEMTKNQVSLTCLVKGFYPSDIAVEWESNGQPENNYKTTPPVLDSDGSFLLYSKLTVDKSRWQEGNVFSCSVMHEALHNHYTQKSLSLSLGK
light 2: QTVVTQEPSLTVSPGGTVTLTCRSSTGAVTTSNYANWVQQKPGQAPRGLIGGTNKRAPGTPARFSGSLLGGKAALTLSGVQPEDEAEYYCALWYSNLWVFGGGTKLTVLGQPKAAPSVTLFPPSSEELQANKATLVCLISDFYPGAVTVAWKADSSPVKAGVETTTPSKQSNNKYAASSYLSLTPEQWKSHRSYSCQVTHEGSTVEKTVAPTECS
notes: IgG4 PAA; PSMA arm first, then CD3 arm (F405L, R409K); also called PSMB361 x CD3B219
For B4, the binding result in experiment [1] was “binds”.

B5: CD3B150 (antibody, V domains shown)
VH: EVQLLESGGGLVQPGGSLRLSCAASGFTFNTYAMNWVRQAPGKGLEWVARIRSKYNNYATYYADSVKGRFTISRDNSKNTLYLQMNSLRAEDTAVYYCAKHGNFGNSYVSWFAYWGQGTLVTVSS
VL: QTVVTQEPSLTVSPGGTVTLTCRSSTGAVTTSNYANWVQQKPGQAPRGLIGGTNKRAPGTPARFSGSLLGGKAALTLSGVQPEDEAEYYCALWYSNLWVFGGGTKLTVL
notes: also called CD3H142/CD3L66; CD3B50
As to B5, the binding result in experiment [2] and in experiment [3] was “binds” in each case.

B6: CD3B148 (antibody, V domains shown)
VH: EVQLLESGGGLVQPGGSLRLSCAASGFTFNTYAMNWVRQAPGKGLEWVARIRSKYNNYATYYADSVKGRFTISRDNSKNTLYLQMNSLRAEDTAVYYCAKHGNFGNSYVSWFAYWGQGTLVTVSS
VL: QSVLTQPPSVSAAPGQKVTISCRSSTGAVTTSNYANWVQQLPGTAPKGLIGGTNKRAPGIPDRFSGSKSGTSATLGITGLQTGDEADYYCALWYSNLWVFGGGTKLTVL
notes: also called CD3H142/CD3L64
On to B6, for which the binding result in experiment [3] is recorded as “binds”.

B7: CD3B143 (antibody, V domains shown)
VH: EVQLVESGGGLVQPGGSLRLSCAASGFTFNTYAMNWVRQAPGKGLEWVARIRSKYNNYATYYAASVKGRFTISRDDSKNSLYLQMNSLKTEDTAVYYCARHGNFGNSYVSWFAYWGQGTLVTVSS
VL: QAVVTQEPSLTVSPGGTVTLTCRSSTGAVTTSNYANWVQQKPGQAPRGLIGGTNKRAPGTPARFSGSLLGGKAALTLSGAQPEDEAEYYCALWYSNLWVFGGGTKLTVL
notes: also called CD3H141/CD3L63
Take B7: the binding result in experiment [2] and in experiment [3] was “binds” each time.

B8: CD3B146 (antibody, V domains shown)
VH: EVQLVESGGGLVQPGGSLRLSCAASGFTFNTYAMNWVRQAPGKGLEWVARIRSKYNNYATYYAASVKGRFTISRDDSKNSLYLQMNSLKTEDTAVYYCARHGNFGNSYVSWFAYWGQGTLVTVSS
VL: QTVVTQEPSLTVSPGGTVTLTCRSSTGAVTTSNYANWVQQKPGQAPRGLIGGTNKRAPGTPARFSGSLLGGKAALTLSGVQPEDEAEYYCALWYSNLWVFGGGTKLTVL
notes: also called CD3H141/CD3L66
Consider B8, for which the binding result in experiment [2] and in experiment [3] was “binds” in each case.

B9: CD3B124 (antibody, V domains shown)
VH: EVKLLESGGGLVQPKGSLKLSCAASGFTFNTYAMNWVRQAPGKGLEWVARIRSKYNNYATYYADSVKDRFTISRDDSQSILYLQMNNLKTEDTAMYYCVRHGNFGNSYVSWFAYWGQGTLVTVSA
VL: QAVVTQESALTTSPGETVTLTCRSSTGAVTTSNYANWVQEKPDHLFTGLIGGTNKRAPGVPARFSGSLIGDKAALTITGAQTEDEAIYFCALWYSNLWVFGGGTKLTVL
notes: also called chimeric SP34-derived antibody
For B9, the binding result in experiment [2] is on record as “binds”.
